This note sets out measurements from patent US20230192896A1 (BIOVERATIV THERAPEUTICS, published 2023).

B1: BIIB-9-628 (antibody, V domains shown)
VH: QVQLVQSGAEVKKPGASVKVSCKASGYTFTSYYMHWVRQAPGQGLEWMGIINPSGGSTSYAQKFQGRVTMTRDTSTSTVYMELSSLRSEDTAVYYCAREPIAYGATLDLWGRGTLVTVSS
VL: EIVLTQSPGTLSLSPGERATLSCRASQSVSSDYLAWYQQKPGQAPRLLIYGASSRATGIPDRFSGSGSGTDFTLTISRLEPEDFAVYYCQQYVVFPFTFGGGTKVEIK
notes: IgG
B2: BIIB-9-884 (antibody, V domains shown)
VH: QLQLQESGPGLVKPSETLSLTCTVSGGSISSSDYYWGWIRQPPGKGLEWIGSIYYSGSTYYNPSLKSRVTISVDTSKNQFSLKLSSVTAADTAVYYCARSPRHKVRGPNWFDPWGQGTLVTVSS
VL: B1 VL with D32S, V93H, V94L, F95L, F97P
notes: IgG
B3: BIIB-9-472 (antibody, V domains shown)
VH: EVQLVESGGGLVKPGGSLRLSCAASGFTFSSYSMNWVRQAPGKGLEWVSSISSSSSYIYYADSVKGRFTISRDNAKNSLYLQMNSLRAEDTAVYYCARGGRYSGSWSWNIWGQGTMVTVSS
VL: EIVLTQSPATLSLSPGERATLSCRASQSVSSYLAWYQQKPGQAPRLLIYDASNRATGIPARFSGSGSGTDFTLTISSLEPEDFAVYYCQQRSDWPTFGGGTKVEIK
notes: IgG
B4: BIIB-9-446 (antibody, V domains shown)
VH: QVQLVQSGAEVKKPGSSVKVSCKASGGTFSSYAISWVRQAPGQGLEWMGGIIPIFGTASYAQKFQGRVTITADESTSTAYMELSSLRSEDTAVYYCARGLEVGYYGYFDYWGQGTLVTVSS
VL: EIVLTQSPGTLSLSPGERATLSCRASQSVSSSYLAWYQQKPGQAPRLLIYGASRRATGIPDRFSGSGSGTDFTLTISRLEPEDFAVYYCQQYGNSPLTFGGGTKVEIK
notes: IgG
B5: BIIB-9-882 (antibody, V domains shown)
VH: QVQLVQSGAEVKKPGASVKVSCKASGYTFTSYYMHWVRQAPGQGLEWMGIINPSGGSTSYAQKFQGRVTMTRDTSTSTVYMELSSLRSEDTAVYYCARGPTDSSGYLDMDVWGKGTTVTVSS
VL: EIVMTQSPATLSVSPGERATLSCRASQSVSSNLAWYQQKPGQAPRLLIFGASTRATGIPARFSGSGSGTEFTLTISSLQSEDFAVYYCQQHDNFPPTFGGGTKVEIK
notes: IgG
B6: BIIB-9-888 (antibody, V domains shown)
VH: B5 VH
VL: B5 VL with F49Y, S80P, H91A, D92F, F94W
notes: IgG
B7: BIIB-9-886 (antibody, V domains shown)
VH: QVQLVQSGAEVKKPGASVKVSCKASGYTFTSYYMHWVRQAPGQGLEWMGIINPSGGSTSYAQKFQGRVTMTRDTSTSTVYMELSSLRSEDTAVYYCARDPAHSYLDAFDIWGQGTMVTVSS
VL: DIQMTQSPSSVSASVGDRVTITCRASQGISSWLAWYQQKPGKAPKLLIYAASSLQSGVPSRFSGSGSGTDFTLTISSLQPEDFATYYCQQASSFPFTFGGGTKVEIK
notes: IgG
B8: BIIB-9-887 (antibody, V domains shown)
VH: QVQLVQSGAEVKKPGASVKVSCKASGYTFTSYYMVWVRQAPGQGLEWMGIINPSGGSTSYAQKFQGRVTMTRDTSTSTVYMELSSLRSEDTAVYYCARDAEAHWIPGMDVWGQGTTVTVSS
VL: B7 VL
notes: IgG
B9: BIIB-9-568 (antibody, V domains shown)
VH: QLQLQESGPGLVKPSETLSLTCTVSGGSISSSSYYWGWIRQPPGKGLEWIGSIYYSGSTYYNPSLKSRVTISVDTSKNQFSLKLSSVTAADTAVYYCARDLGYAATYFDLWGRGTLVTVSS
VL: DIQMTQSPSSLSASVGDRVTITCQASQDISNYLNWYQQKPGKAPKLLIYDASNLETGVPSRFSGSGSGTDFTFTISSLQPEDIATYYCQQYDDYLTFGGGTKVEIK
notes: IgG
B10: BIIB-9-889 (antibody, V domains shown)
VH: B9 VH with L101V, Y103W, A104Y, A105T, T106E
VL: B5 VL with F49Y, H91A, D92F, F94W
notes: IgG
B11: BIIB-9-607 (antibody, V domains shown)
VH: QLQLQESGPGLVKPSETLSLTCTVSGGSISSSSYYWGWIRQPPGKGLEWIGSISYSGSTYYNPSLKSRVTISVDTSKNQFSLKLSSVTAADTAVYYCARDRGYSYEDFDLWGRGTLVTVS
VL: DIQMTQSPSTLSASVGDRVTITCRASQSISSWLAWYQQKPGKAPKLLIYKASSLESGVPSRFSGSGSGTEFTLTISSLQPDDFATYYCQQAGRYPLTFGGGTKVEIK
notes: IgG
B12: BIIB-9-1266 (antibody, V domains shown)
VH: QVQLVQSGAEVKKPGASVKVSCKASGYTFTSYYMHWVRQAPGQGLEWMGIINPSGGSTSYAQKFQGRVTMTRDTSTSTVYMELSSLRSEDTAVYYCARDHGWAIYGMDVWGQGTTVTVSS
VL: EIVMTQSPATLSLSPGERATLSCRASQSVSSYLAWYQQKPGQAPRLLIYDSSNRATGIPARFSGSGSGTDFTLTISSLEPEDFAVYYCQQRLNFPFTFGGGTKVEIK
notes: IgG
B13: BIIB-9-433 (antibody, V domains shown)
VH: B9 VH with S33R, L101A, A104S, T106E, Y107L, L110Y, R113Q
VL: B12 VL with M4L, S51A, R91S, L92S, N93A, F94Y, F96P
notes: IgG
B14: BIIB-9-615 (antibody, V domains shown)
VH: QVQLVQSGAEVKKPGASVKVSCKASGYTFTSYYMHWVRQAPGQGLEWMGIINPSGGSTSYAQKFQGRVTMTRDTSTSTVYMELSSLRSEDTAVYYCARDSPSSSSYWSLDLWGRGTLVTVSS
VL: B12 VL with M4L, S51A, R91S, L92C, N93H, F94W, F96W
notes: IgG
B15: BIIB-9-471 (antibody, V domains shown)
VH: QVQLQESGPGLVKPSQTLSLTCTVSGGSISSGGYYWSWIRQHPGKGLEWIGYIYYSGSTYYNPSLKSRVTISVDTSKNQFSLKLSSVTAADTAVYYCARSGVSGSGSDNWFDPWGQGTTVTVSS
VL: B12 VL with M4L, S31R, S51A, R91D, L92Y, F94Y
notes: IgG
B16: BIIB-9-439 (antibody, V domains shown)
VH: B12 VH with S59T, D99E, H100A, G101T, W102E, A103S, I104Y, G106Y, Q112K
VL: B12 VL with L92D, F94W
notes: IgG

Changes are numbered by the printed parent chain.

The target of one assay is T1, free FIXa (activated Factor IX) (human, UniProt P00740 47-191; P00740 227-461).
T1 construct: BLI antigen bought from Haematologic Technologies (HCIXA-0050); also called factor IXa
The assay is described as follows: BLI; class meaning: paragraph 914.
As for B1, the binding result is “binds”.

For B2, the binding result is given as “binds”.

As for B3, the binding result was “binds”.

With B4, the binding result was “binds”.

In the case of B5, the binding result was “binds”.

For B6, the binding result was “binds”.

As to B7, the binding result is “binds”.

As for B8, the binding result is reported as “binds”.

As for B9, the binding result is on record as “binds”.

Regarding B10, the binding result was “binds”.

Consider B11, for which the binding result is on record as “binds”.

As to B12, the binding result is on record as “binds”.

As to B13, the binding result is “binds”.

As for B14, the binding result was “binds”.

For the molecule B15, the binding result is recorded as “binds”.

For the molecule B16, the binding result was “binds”.

A further assay has as its target T2, FIXa-SM (FIXa+EGR-CMK) (human, UniProt P00740 47-191; P00740 227-461, EGR-CMK (L-Glu-Gly-Arg chloromethyl ketone) covalently bound to the active site).
T2 construct: BLI antigen bought from Haematologic Technologies (HCIXA-EGR); also called FIXa with substrate mimic
In words: BLI; class meaning: paragraph 914.
With B1, the binding result is “binds”.

In the case of B2, the binding result is reported as “binds”.

On to B3, for which the binding result was “binds”.

As to B4, the binding result is on record as “binds”.

Take B5: the binding result is listed as “binds”.

For the molecule B6, the binding result was “binds”.

As for B7, the binding result is “binds”.

As for B8, the binding result is recorded as “binds”.

On to B9, for which the binding result was “binds”.

For B10, the binding result was “binds”.

With B11, the binding result is given as “binds”.

On to B12, for which the binding result is “binds”.

Consider B13, for which the binding result was “binds”.

B14: the binding result was “binds”.

As to B15, the binding result is “binds”.

B16: the binding result is on record as “binds”.
